Measurements published in patent US20220340685A1, “COMBINATION THERAPY WITH ENTPD2 AND CD73 ANTIBODIES” (Novartis AG, priority 2019, published 2022).

What was measured:
ENTPD2 = molecular target: T1, ENTPD2 (Homo sapiens, UniProt Q9Y5L3); assay: Cell-based screen of hybridoma-derived mAbs for inhibition of ATP hydrolysis by ENTPD2
T1 sequence (Q9Y5L3 1-495): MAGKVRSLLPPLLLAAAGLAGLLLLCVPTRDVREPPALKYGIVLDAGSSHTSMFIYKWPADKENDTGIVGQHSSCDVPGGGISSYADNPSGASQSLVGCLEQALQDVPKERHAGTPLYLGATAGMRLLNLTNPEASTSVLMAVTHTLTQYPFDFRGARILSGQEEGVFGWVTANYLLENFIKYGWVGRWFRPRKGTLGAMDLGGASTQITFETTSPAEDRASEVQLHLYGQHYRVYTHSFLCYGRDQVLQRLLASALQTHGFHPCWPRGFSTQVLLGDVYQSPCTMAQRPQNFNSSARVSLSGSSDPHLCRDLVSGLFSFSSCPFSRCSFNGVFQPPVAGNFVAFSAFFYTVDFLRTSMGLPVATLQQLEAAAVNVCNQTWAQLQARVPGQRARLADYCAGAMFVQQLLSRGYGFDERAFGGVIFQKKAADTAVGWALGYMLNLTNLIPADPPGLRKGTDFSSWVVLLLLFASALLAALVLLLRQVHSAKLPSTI
From the text: Hybridoma-derived mAbs were screened in a cell-based assay for inhibition of ATP hydrolysis by ENTPD2.

B16F10 tumor model = assay: Syngeneic B16F10 tumor model, tumor growth; type: in vivo, C57BL/6 mice; conditions: mAb13 15 mg/kg, anti-PD-1 Ab 10 mg/kg i.p., days 1, 5, 8
Experimental: B16F10 model was established in female C57BL/6 mice by subcutaneous injection of 0.5×10^6 cells into the right flank of each mouse. On day 7 once tumors reached approximately 30 mm^3, mice were randomized according to tumor volume into treatment groups (n=10 per group). Mice received treatment of either anti-mouse ENTPD2 mAb13 at a final dose 15 mg/kg, anti-PD-1 Ab (clone RMP1-14 Bio X Cell, West Lebanon, N.H.) i.p. at a final dose of 10 mg/kg or the combination of both treatments on days 1, 5, and 8. All doses were adjusted to individual mouse body weights.

4T1 clone 45 tumors = assay: 4T1 clone 45 model, flow cytometry of tumor cells and immune infiltrate on day 12; type: in vivo, BALB/c mice
From the text: In order to understand the impact of anti-ENTPD2 mAb15 alone or in combination with anti-CD73 mAb 350 treatments on the tumor microenvironment, mice were euthanized on day 12 and tumors were dissociated in HyClone RPMI1640 media (GE Healthcare, Pittsburg, Pa.) using gentleMacs C-tubes (Miltenyi Biotec, Auburn, Calif.) on the gentleMacs Octo Dissociator (Miltenyi Biotec, Auburn, Calif.). Approximately 2×10^6 dissociated tumor cells were blocked with rat anti-mouse CD16/CD32 Ab (Biolegend, San Diego, Calif.) to reduce non-specific FcyRIII/II binding and subsequently stained with the cocktails of antibodies from either the myeloid or T cell panel:
We also stained cells with an anti-ENTPD2 antibody whose binding to ENTP2 is not blocked by anti-ENTPD2 mAb15. All incubations and washed were performed in FACS Buffer composed of 1× Hyclone Phosphate Buffered Saline (GE Healthcare, Pittsburg, Pa.), 1% HyClone Fetal Bovine Serum (GE Healthcare, Pittsburg, Pa.), 2 mM EDTA (ThermoFisher, Waltham Mass.).

[1] = test system: mouse ENTPD2-engineered 4T1 clone 45; assay: Mouse ENTPD2 engineered 4T1 clone 45 syngeneic model, efficacy; type: in vivo, BALB/c mice; conditions: Day 12 post treatment; mAb15 10 mg/kg i.p.; mAb 350 20 mg/kg i.p.
From the text: This model was derived from the 4T1 murine breast cancer model, where mouse ENTPD2 was overexpressed using a retroviral transduction approach. […] Stable mouse ENTPD2 expression (approximately 479,000 receptors) in the model was confirmed in vitro by flow cytometry with the mouse ENTPD2 selective anti mouse ENTPD2 mAb15 (FIG. 27).
Mouse ENTPD2-engineered 4T1 clone 45 model was established in female BALB/c mice by subcutaneous injection of 0.5×10^6 cells into the right flank of each mouse. Once tumors reached approximately 50-80 mm^3, mice were randomized according to tumor volume into treatment groups (n=10 per group). Mice received an i.p. treatment of either Anti-mENTPD2 mAb15 or a non-specific mouse IgG2a isotype control at a final dose of 10 mg/kg on day 0, 2, 5 and 9. Anti-CD73 mAb 350 or a non-specific human IgG4 was dosed i.p. at a final dose of 20 mg/kg on day 0 and 5.

4T1 clone 45 model = assay: 4T1 clone 45 model, plasma cytokines and Serum Amyloid P 24 hr post treatment; type: in vivo, BALB/c mice; conditions: 24 hours after the first treatments
From the text: In order to investigate the immediate impact of ENTPD2 blockade from an immune pathway engagement/biomarker perspective plasma was collected from BALB/c mice 24 hr after treatment with anti mENTPD2 mAb15 alone or in combination with anti-CD73 mAb 350.
Mouse ENTPD2-engineered 4T1 clone 45 model was established in female BALB/c mice by subcutaneous injection of 0.5×10^6 cells into the right flank of each mouse. Once tumors reached approximately 100-150 mm^3, mice were randomized according to tumor volume into treatment groups (n=8 per group). Mice received an i.p. treatment of either Anti-mENTPD2 mAb 15 or a non-specific mouse IgG2a isotype control at a final dose of 10 mg/kg on day 0, 2, 5 and 9. Anti-CD73 mAb 350 or a non-specific human IgG4 was dosed i.p. at a final dose of 20 mg/kg on day 0 and 5 (Table 28).
For the measurement of cytokines and Serum Amyloid P, a marker of inflammation in a mouse, plasma was collected pre-dosing the mice on Day 0 and 24 hours after the first treatments on Day 1.
Briefly, plasma was isolated via collection of blood into Microvette MV-H-300 Capillary Plasma Lithium Heparin Blood Collection tube (Sai Infusion technologies, Lake Villa, Ill.), that were spun down at 1000-2000 ×g for 10 min. Plasma samples were stored at −80C until use. 10 μL of serum diluted 1:5 was used for cytokine analysis using the MSD Mouse Pro-Inflammatory Panel 1 (MSD, Rockville, Md.) and 5 μL of serum diluted 1:10 MSD Mouse Cytokine Panel 1 (MSD, Rockville, Md.) according to manufacturer's recommendations. To determine the levels of SAP 10 μL of undiluted serum was used for analysis in the SAP Quantikine® ELISA (RnD systems) according to manufacturer's recommendations.

B1: mAb16: hybridoma-derived anti-human ENTPD2 lead inhibitory mAb (chimeric); VH/VL DNA SEQ ID NO: 226/230 (antibody, V domains shown)
VH: DIQLQESGPGLVKPSQSLSLTCSVTGYSITSGYYWNWIRQFPGNKLEWMGYISYDGDNNYNPSLKNRISITRDTSKNQFFLKLSSVTTEDTATYYCAGGYYRYGLSYYYVMDYWGQGTSVTVSS
VL: DTVLTQSPASLAVSLGQRATISCKASQSVDYDGNSYMNWYQQKPGQPPKLLIYAASNLESGIPARFSGSGSGTDFTLNIHPVEEEDAATYYCQQSNEDPPTFGGGTKLEIK
modifications: constant regions not cited
inhibition of ATP hydrolysis by ENTPD2 (screen outcome) (ENTPD2): lead inhibitory mAbs

B2: mAb13: anti-mouse ENTPD2 monoclonal antibody; HC SEQ ID NO: 193, LC SEQ ID NO: 204 (antibody)
heavy: QVQLVQSGAELKQPGQSVKISCKASGYTFTHYGMNWVKQAPGQGLKWMGWINTDTGNPTYADDFKGRFVFSLDTSVSTAYLQISNLKNEDTATYYCVRYGTLYSGYGFFFDSWGQGTLVTVSSAKTTAPSVYPLAPVCGDTTGSSVTLGCLVKGYFPEPVTLTWNSGSLSSGVHTFPAVLQSDLYTLSSSVTVTSSTWPSQSITCNVAHPASSTKVDKKIEPRGPTIKPCPPCKCPAPNLLGGPSVFIFPPKIKDVLMISLSPIVTCVVVDVSEDDPDVQISWFVNNVEVHTAQTQTHREDYNSTLRVVSALPIQHQDWMSGKEFKCKVNNKDLPAPIERTISKPKGSVRAPQVYVLPPPEEEMTKKQVTLTCMVTDFMPEDIYVEWTNNGKTELNYKNTEPVLDSDGSYFMYSKLRVEKKNWVERNSYSCSVVHEGLHNHHTTKSFSRTPGK
light: DIMMTQSPSSLSVSAGEKATITCKSSQSLFNSNTNKNYLNWYLQKPGQSPKLLFYYASTRHTGVPDRFIGSGSGTDFTLTITSVQDEDLADYYCQQWYSYPWTFGPGTKLEIKRADAAPTVSIFPPSSEQLTSGGASVVCFLNNFYPKDINVKWKIDGSERQNGVLNSWTDQDSKDSTYSMSSTLTLTKDEYERHNSYTCEATHKTSTSPIVKSFNRNEC
anti-tumor efficacy (tumor growth relative to No Treatment) (B16F10 tumor model): No significant anti-tumor efficacy

B3: mAb15: anti-mouse ENTPD2 antibody, T30 variant of mAb13; HC SEQ ID NO: 218, LC SEQ ID NO: 204 (antibody)
heavy: QVQLVQSGAELKQPGQSVKISCKASGYTFHHYGMNWVKQAPGQGLKWMGWINTDTGNPTYADDFKGRFVFSLDTSVSTAYLQISNLKNEDTATYYCVRYGTLYSGYGFFFDSWGQGTLVTVSSAKTTAPSVYPLAPVCGDTTGSSVTLGCLVKGYFPEPVTLTWNSGSLSSGVHTFPAVLQSDLYTLSSSVTVTSSTWPSQSITCNVAHPASSTKVDKKIEPRGPTIKPCPPCKCPAPNLLGGPSVFIFPPKIKDVLMISLSPIVTCVVVDVSEDDPDVQISWFVNNVEVHTAQTQTHREDYNSTLRVVSALPIQHQDWMSGKEFKCKVNNKDLPAPIERTISKPKGSVRAPQVYVLPPPEEEMTKKQVTLTCMVTDFMPEDIYVEWTNNGKTELNYKNTEPVLDSDGSYFMYSKLRVEKKNWVERNSYSCSVVHEGLHNHHTTKSFSRTPGK
light: DIMMTQSPSSLSVSAGEKATITCKSSQSLFNSNTNKNYLNWYLQKPGQSPKLLFYYASTRHTGVPDRFIGSGSGTDFTLTITSVQDEDLADYYCQQWYSYPWTFGPGTKLEIKRADAAPTVSIFPPSSEQLTSGGASVVCFLNNFYPKDINVKWKIDGSERQNGVLNSWTDQDSKDSTYSMSSTLTLTKDEYERHNSYTCEATHKTSTSPIVKSFNRNEC
CD4+ central memory cells (CD45+MHCII-CD49−CD4+CD62L+CD44+) (4T1 clone 45 tumors; day 12): significant increase | activated CD8+ T cells (CD45+MHCII-CD49−CD8+CD25+) (4T1 clone 45 tumors; day 12): significant increase | cell surface ENTPD2 staining on tumor cells (4T1 clone 45 tumors; day 12, vs hIgG4 and mIgG2 isotype antibodies): decrease in cell surface ENTPD2 staining | AT/AC value [1]: 76.61 | SAP (Serum Amyloid P) (4T1 clone 45 model): significant increase | plasma IP10 (4T1 clone 45 model): significant increase | plasma MCP1 (4T1 clone 45 model): significant increase | plasma MIP-2 (4T1 clone 45 model): significant increase
